PMC11324726, “Structural dynamics of protein-protein association involved in the light-induced transition of Avena sativa LOV2 protein” (Nature Communications, 2024)
Substitutions are numbered along the chain they refer to. In names and notes the source's numbering stands.

B1: AsLOV2 (residue 404-546) I427V mutant (domain or fragment, Avena sativa, UniProt O49003 404-546, looked up)
chain: LATTLERIEKNFVITDPRLPDNPVIFASDSFLQLTEYSREEILGRNCRFLQGPETDRATVRKIRDAIDNQTEVTVQLINYTKSGKKFWNLFHLQPMRDQKGDVQYFIGVQLDGTEHVRDAAEREGVMLIKKTAENIDEAAKEL
notes: Avena sativa phototropin 1, residues 404-546, with I427V (faster photocycle); Carries FMN; Cys-FMN photoadduct in the light state; also called AsLOV2 I427V
B2: Avena sativa phototropin 1 LOV2 domain with A'α and Jα helices (residue 404-546), wild type (domain or fragment, UniProt O49003 404-546, looked up)
chain: B1 chain with V24I
notes: Avena sativa phototropin 1 (AsPhot1), A'α helix (404-412) + LOV2 core (413-520) + Jα helix (521-546), residues 404-546; Carries FMN as chromophore; in the light state a Cys-FMN photoadduct is formed; also called AsLOV2; AsLOV2 WT

Assays:
[1] = target: the molecule itself; assay: time-resolved X-ray liquidography (TRXL, TR-SAXS/WAXS); in solution; ns laser pump at 450 nm, X-ray probe; 1.5 mM protein in 20 mM Tris pH 7.0, 200 mM NaCl, 293 K; monomers (I2) to dimer (P); kinetic analysis by SVD and KCA, structural analysis aided by MD
[2] = target: the molecule itself; assay: SEC; light state; monomer and dimer fractions by elution volume; conditions in Supplementary Note 3 and Supplementary Methods (not shown)

| Protein | stoichiometry N [1] | stoichiometry N [2] |
| --- | --- | --- |
| B1 | 2 |  |
| B2 |  | 2 |
